# ± gives the uncertainty stated by the source.
# Test: amyloid nucleation score (Sup35N fusion, yeast selection) (log enrichment); library NNK1; higher = more nucleation; inactive = no reads after selection
# Summary of the method: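 Nucleation score: DiMSum log enrichment of output over input reads, centred on the mode score of non-aggregating sequences. Only sequences with at least 100 input reads were kept. Reads came from Illumina sequencing of plasmid inserts before and after 7 days of growth at 30°C without adenine and uracil, in psi-negative yeast expressing Sup35N fused to peptides of 20 random codons after 24 hours of induction with 100 μM copper sulfate.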
row,Substance,amyloid nucleation score
1,TRHGLGRFVHSRTVVFIGIW,-0.642 ± 0.82
2,GNFHQPFFLMVVFQHARAPL,6.291 ± 0.054
3,IVDSVRGKGVY,1.14 ± 0.79
4,TCFMLKWIKQRLIDGSVKGR,0.512 ± 1.2
5,QSICFYSLKQCIRAKHR,0.774 ± 0.37
6,LIVRNRHCLGAPFENFFSAR,0.671 ± 0.37
7,VWCVVVCMSRQGKYTLCRWR,0.444 ± 0.97
8,RGELAVRKPG,0.402 ± 0.28
9,SDVWGWWGRSRVTADYFADV,-1.17 ± 1.7
10,IRRYLSCPYNISIVYSENIV,-0.185 ± 0.71
11,FPNLHLTELCLGRIYVRACY,inactive
12,LCYFQGSWYLVRCAIALTYV,0.327 ± 0.48
13,SLLPDPHYMTQVW,-0.559 ± 0.55
14,FGQCSSLVLT,inactive
15,TFSQWWVRSCFGTRMNWCLV,0.174 ± 1.2
16,SIKFIRTYWWITNSVDKFV,inactive
17,KPERICLWLVVKRYSMVHLW,0.253 ± 0.51
18,LGGGTFVRWLKSILSFLLW,0.325 ± 0.46
19,ERPTWVGGDGSSGLVVGSDL,-0.22 ± 0.81
20,YDPRIGLVSVGNVRNNSV,-1.48 ± 1.4
21,VCRRVHGSMP,-0.236 ± 1.2
22,ITYINLSSSYKIPRPTHMRI,6.07 ± 0.065
23,LVAFRYLRSGSSRLKFSVLF,-0.787 ± 0.48
24,NVVAYTCNFFCDGSLSGYLC,0.784 ± 0.41

row,Substance,amyloid nucleation score
1,GWLTYSPRSALIDHERRSLQ,0.879 ± 0.15
2,PSRVKLKISKLL,-0.647 ± 0.94
3,SFFGFMVMTSRDDRFRLQ,3.04 ± 0.085
4,SNSSLECYCMNVVRFHLGLS,0.735 ± 0.18
5,LMWGIAYCYSVDLC,5.386 ± 0.051
6,IFYFVL,6.8 ± 0.074
7,GSPVCTRRRPASLPPLRQVH,0.208 ± 0.45
8,KSVPRKVFGAILDFLDLQLM,0.979 ± 0.73
9,KLVLLGNK,0.134 ± 0.5
10,GFWQLFLRVIPLFSVGYSNC,0.875 ± 0.69
11,NYSEPDFKFHCVYGVYAMWG,0.403 ± 0.88
12,KSVLQFETMGFVDLYFSFNL,5.49 ± 0.091
13,GVMPWLR,-0.123 ± 0.99
14,QRHITSL,-1.37 ± 1.9
15,CAVTDVRIIIHF,2.15 ± 0.22
16,LLNFCIWAKCWYRLVCNC,0.209 ± 0.93
17,FFGHAEDFLYMIRVHAGNNL,-0.379 ± 0.41
18,IWMIAQDGFNFQLSNR,0.282 ± 0.31
19,MKAGFHYYLVMLVRKE,0.265 ± 0.31
20,FLSGYGSCLELANVIRWLEN,1.19 ± 0.69
21,VVVCAVHDDYSINRAIEDER,-0.183 ± 0.4
22,HQFSVHIPCCYSVPGNLYGW,0.888 ± 0.73
23,MQGDRQDGLYNKGDYPQFIF,-0.267 ± 0.39
24,SKSGLDDGHDA,-0.335 ± 0.23

row,Substance,amyloid nucleation score
1,IQPLIWANYFVIGARV,3.66 ± 0.1
2,KICTYSRFC,0.848 ± 0.39
3,YGYMGGCHFPLYLMRIDSRD,0.564 ± 0.75
4,YYVFITIYVVSLVCNLSCYF,-0.573 ± 0.74
5,LGWIDSYTYHWDTIHRKQFR,0.878 ± 0.33
6,YHKTYIRYWAIVFDMMVRFG,0.372 ± 1.4
7,SIFSSNCNL,-0.36 ± 0.24
8,VRAGH,0.087 ± 0.27
9,HLPTKFLGVPNKLAYSTAPV,-0.401 ± 0.42
10,MCCCLDDEGDHLNWFKRLRC,1.52 ± 0.49
11,YSVSWQLFGIDVCTFVTVRS,0.367 ± 0.52
12,VFFYSRT,3.02 ± 0.08
13,YGQMVIFGPVMLMAVLTW,3.33 ± 0.093
14,LLYVLSTLIMYTSTMYIYQV,0.662 ± 0.51
15,LVVFATSVGSGGFKVWGHPG,0.041 ± 0.45
16,GRFSVVAISHKQTFNFDWRT,8.058 ± 0.072
17,MFSYDFGMCGFYN,0.971 ± 0.29
18,LSLSYHMLSYI,inactive
19,GISFWSLGC,1.07 ± 0.84
20,AVYICPYLQSGNALATDMW,0.587 ± 1.1
21,IWLSFKDLCKVRICSS,0.803 ± 0.59
22,VGGGSRWDIRDNSNQSIIPM,-0.338 ± 0.34

# Source: the supplement of paper PMC12042874
